Target: protocadherin-15 EC1+2 R113G, His-tagged (mouse), Q99PJ1
Test: thermal scanning (thermal stability shift assay with SYPRO orange); pcdh15 fixed at 0.1 mg/mL (~4 μM), cdh23 0.1 to 0.5 mg/mL (~4 to 20 μM; cdh23:pcdh15 1:1 to 5:1); SEC buffer (20 mM Tris-HCl pH 7.5, 150 mM KCl, 50 mM NaCl, 2 mM CaCl2); 10 to 95°C in 0.2°C steps, 5 s equilibration; read-out: shift of the Tm of pcdh15 (ΔTm)
Settings: remark: other sources report otherwise

B1: cadherin-23 EC1+2, wild type, His-tagged, Q99PF4 24-228 (domain or fragment)
chain: QVNRLPFFTNHFFDTYLLISEDTPVGSSVTQLLARDMDNDPLVFGVSGEEASRFFAVEPDTGVVWLRQPLDRETKSEFTVEFSVSDHQGVITRKVNIQVGDVNDNAPTFHNQPYSVRIPENTPVGTPIFIVNATDPDLGAGGSVLYSFQPPSPFFAIDSARGIVTVIQELDYEVTQAYQLTVNATDQDKTRPLSTLANLAIIITD
ΔTm of pcdh15 at cdh23:pcdh15 1:1: -0.6 °C | ΔTm of pcdh15 at cdh23:pcdh15 2:1: 0.2 °C | ΔTm of pcdh15 at cdh23:pcdh15 3:1: 1 °C | ΔTm of pcdh15 at cdh23:pcdh15 4:1: 1.3 °C | ΔTm of pcdh15 at cdh23:pcdh15 5:1: 1.5 °C
